Laboratory results reported in EP1142907A1.

Biological target: GAL4-CREBΔLZ fusion protein
Experiment: cell-based or functional assay

- transactivation of the pG5CAT reporter after caffeine in HEK293 cells: < 45 fold
Substance: transcriptional coactivator CBP (CREB-binding protein)
